Among the data in the supplement of paper PMC9732359 are protein stability index values, retold here.

± gives the uncertainty stated by the source.

The series is described as follows: protein stability index of a GFP-peptide fusion (yeast GPS) (PSI 1-4); higher = more stable; sorted into four equal gates, so the index is relative within each strain. In outline:
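Sequencing reads from sorted gates were used to score each peptide. The library consisted of tiled 17-residue yeast protein peptides fused downstream of GFP on a Cherry-expressing plasmid, pooled and carried in yeast. Mid-log cultures in leucine-free medium were split into four equal gates by GFP/Cherry ratio, and each gate's plasmids were PCR-amplified and Illumina-sequenced. The protein stability index adds up, over all gates, the read frequency multiplied by the gate number.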

Turning to FQVHERLAPLIKEENDM [ARP7], the protein stability index is, setting by setting: (pdr5∆) 3.58 ± 0.17; (san1∆) 2.97 ± 0.15; (ubr1∆) 3.22 ± 0.28.
As to NITDYETHPDNSNKQAV [BRR2], the protein stability index is, setting by setting: (doa10∆) 2.81 ± 0.047; (pdr5∆) 3 ± 0.045; (san1∆) 2.73 ± 0.037; (ubr1∆) 2.9 ± 0.034.
As to IRNLTVFTMKELAQYMK [RGR1], the protein stability index (doa10∆) was 3.04 ± 0.24, the protein stability index (pdr5∆) came out at 2.78 ± 0.22, the protein stability index (san1∆) was found to be 2.71 ± 0.2 and the protein stability index (ubr1∆) turned out to be 2.79 ± 0.08.
Take AAAYSHELPRYGITHGL [RPL5]: the protein stability index came to 2.64 ± 0.081 (doa10∆), 2.93 ± 0.064 (pdr5∆), 2.98 ± 0.052 (san1∆) and 2.96 ± 0.074 (ubr1∆).
Turning to MGVIKKKRSHHGKASRQ [SNF6], the protein stability index by setting is: (doa10∆) 3.15 ± 0.14; (pdr5∆) 3.15 ± 0.12.
The corresponding values for NLLSKRNQEKKMEKKKS [SNM1] are 3.09 ± 0.16 and 3.38 ± 0.28.
For the sequence NDEPSHKKIKVAQPDSL [SIR2], the protein stability index reads like this: (doa10∆) 2.32 ± 0.079; (pdr5∆) 2.31 ± 0.071; (san1∆) 1.63 ± 0.1; (ubr1∆) 3.19 ± 0.055.
For PLDEIPVDVDFNLDLDD [REC8] the same measures were 2.7 ± 0.1, 2.43 ± 0.066, 2.24 ± 0.088 and 2.25 ± 0.066.
The corresponding values for MSGYDRALSIFSPDGHI [PRE6] are 2.82 ± 0.12, 2.38 ± 0.14, 2.76 ± 0.09 and 2.69 ± 0.077.
Take HLLLGFQVSNVISLGPN [YJL039C/NUP192]: the protein stability index runs as follows: (doa10∆) 1.37 ± 0.052; (pdr5∆) 1.75 ± 0.049; (san1∆) 2.08 ± 0.088; (ubr1∆) 1.8 ± 0.042.
In the case of DLEEVKRFQVLYPCYFD [SEC65], the protein stability index was determined as 2.28 ± 0.14 (doa10∆), 2.75 ± 0.088 (pdr5∆), 2.42 ± 0.25 (san1∆) and 2.34 ± 0.12 (ubr1∆).
For INNPVNLTIHFGGEKGK [FAS1] the same measures were 2.97 ± 0.068, 2.8 ± 0.097, 2.8 ± 0.07 and 3.25 ± 0.069.
For KRITQITIEPGVDVEVV [RPS20] the same measures were 2.7 ± 0.089, 1.78 ± 0.17, 2.81 ± 0.15 and 2.6 ± 0.09.
For LPGKVNTKEEFAAAPND [SNF5] the same measures were 2.66 ± 0.084, 2.91 ± 0.061, 2.84 ± 0.058 and 2.85 ± 0.067.
For QDYYIIGANIYQSPTIF [MED6], the protein stability index by setting is: (doa10∆) 2.33 ± 0.056; (pdr5∆) 2.42 ± 0.055; (san1∆) 2.15 ± 0.07; (ubr1∆) 2.46 ± 0.029.
The corresponding values for RYENNDDDERVEYNLFT [BRN1] are 3.17 ± 0.1, 3.27 ± 0.087, 3.07 ± 0.064 and 3.04 ± 0.043.
Sequence KRKWSYVLYAKIVVLSR [RRP43] had a protein stability index (doa10∆) of 1.82 ± 0.06, a protein stability index (pdr5∆) of 2.36 ± 0.064, a protein stability index (san1∆) of 1.87 ± 0.11 and a protein stability index (ubr1∆) of 2.21 ± 0.056.
In the case of NGGSEEEITCALDYLIP [MED7], the protein stability index turned out to be 3.45 ± 0.1 (doa10∆), 3.45 ± 0.13 (pdr5∆), 3.44 ± 0.098 (san1∆) and 3.35 ± 0.09 (ubr1∆).
As for YFFYASRPEYSCTFWSD [YJL039C/NUP192], the protein stability index (doa10∆) was 1.22 ± 0.069, the protein stability index (pdr5∆) came to 1.52 ± 0.084, the protein stability index (san1∆) was found to be 1.31 ± 0.14 and the protein stability index (ubr1∆) was found to be 1.62 ± 0.054.
The sequence KNLIQLISLKLLTFEVT [SRB8] gave a protein stability index (doa10∆) of 1.28 ± 0.081, a protein stability index (pdr5∆) of 1.19 ± 0.054, a protein stability index (san1∆) of 1.24 ± 0.13 and a protein stability index (ubr1∆) of 1.1 ± 0.071.
As for GRLASTIAKQVLNGQKI [RPL16B], the protein stability index is, setting by setting: (doa10∆) 3.42 ± 0.28; (pdr5∆) 2.69 ± 0.11; (ubr1∆) 2.58 ± 0.13.
The sequence IVSKEYEKNFEATLESK [ESC2] yielded a protein stability index (doa10∆) of 2.98 ± 0.24, a protein stability index (pdr5∆) of 3.08 ± 0.17, a protein stability index (san1∆) of 2.9 ± 0.088 and a protein stability index (ubr1∆) of 2.88 ± 0.18.
On to DVPAYNVTSFMPFWKFF [SRB8], for which the protein stability index turned out to be 1.62 ± 0.037 (doa10∆), 1.68 ± 0.04 (pdr5∆), 1.5 ± 0.06 (san1∆) and 1.56 ± 0.031 (ubr1∆).
On to ILLTSISRERDLFTHLW [SRP68], for which the protein stability index (doa10∆) was determined as 2.85 ± 0.13, the protein stability index (pdr5∆) was 2.71 ± 0.18, the protein stability index (san1∆) amounted to 2.75 ± 0.1 and the protein stability index (ubr1∆) turned out to be 2.73 ± 0.11.
Turning to VVTSSVAESFTDEADSS [SNF2], the protein stability index is 3.03 ± 0.095 (doa10∆), 2.98 ± 0.1 (pdr5∆), 3.15 ± 0.075 (san1∆) and 3.01 ± 0.084 (ubr1∆).
The corresponding values for ITHQGANSESGHYQAFI [UBP6] are 3.04 ± 0.19, 2.95 ± 0.08, 3.16 ± 0.071 and 3.05 ± 0.079.
